Data taken from publication PMC3035457 (Nucleic Acids Research, 2010).

Molecular target: T1, MBP-GCM1(167–349) (human, UniProt Q9NP62 167-349)
T1 sequence: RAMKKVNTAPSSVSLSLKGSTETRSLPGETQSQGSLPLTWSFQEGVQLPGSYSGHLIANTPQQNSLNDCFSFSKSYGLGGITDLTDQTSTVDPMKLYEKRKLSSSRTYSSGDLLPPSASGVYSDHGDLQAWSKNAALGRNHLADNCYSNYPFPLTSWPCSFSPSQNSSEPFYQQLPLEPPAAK
Assay: pull-down

B1: recombinant DUSP23-FLAG (DUSP23 with a C-terminal FLAG tag) (enzyme)
chain: MGVQPPNFSWVLPGRLAGLALPRLPAHYQFLLDLGVRHLVSLTERGPPHSDSCPGLTLHRLRIPDFCPPAPDQIDRFVQIVDEANARGEAVGVHCALGFGRTGTMLACYLVKERGLAAGDAIAEIRRLRPGSIETYEQEKAVFQFYQRTK
binding result: binds
